Results from PMC3471918 (PLoS ONE, 2012).

Tests used:
Test in all cases: AUC; sedimentation velocity, 4°C, 40,000 rpm, 50 mM Tris pH 7.4, absorbance at 280 nm, c(s,ff0) distributions by SEDFIT corrected to 20,w; monomer, dimer and higher oligomers
[1] = target: rat insulin degrading enzyme C904S (rat) (UniProt P35559)
[2] = target: cysteine-free rat insulin degrading enzyme (all twelve cysteines converted to serines) (rat) (UniProt P35559)
[3] = target: the molecule itself

Molecule “rat insulin degrading enzyme C904S (from UniProt P35559 1-1019)” has a stoichiometry N [1] of 2.

“cysteine-free rat insulin degrading enzyme (all twelve cysteines converted to serines) (from UniProt P35559 1-1019)” gave a fold decrease in dimer content against wild type IDE [2] of 2 fold.

B1: rat insulin degrading enzyme (IDE), wild type (enzyme, UniProt P35559 1-1019, looked up)
chain: MNNPAIQRIEDHIVKSPEDKREYRGLELANGIKVLLISDPTTDKSSAALDVHIGSLSDPPNIPGLSHFCEHMLFLGTKKYPKENEYSQFLSEHAGSSNAFTSGEHTNYYFDVSHEHLEGALDRFAQFFLCPLFDASCKDREVNAVDSEHEKNVMNDAWRLFQLEKATGNPKHPFSKFGTGNKYTLETRPNQEGIDVREELLKFHSTYYSSNLMAICVLGRESLDDLTNLVVKLFSEVENKNVPLPEFPEHPFQEEHLKQLYKIVPIKDIRNLYVTFPIPDLQQYYKSNPGHYLGHLIGHEGPGSLLSELKSKGWVNTLVGGQKEGARGFMFFIINVDLTEEGLLHVEDIILHMFQYIQKLRAEGPQEWVFQECKDLNAVAFRFKDKERPRGYTSKIAGKLHYYPLNGVLTAEYLLEEFRPDLIDMVLDKLRPENVRVAIVSKSFEGKTDRTEQWYGTQYKQEAIPEDVIQKWQNADLNGKFKLPTKNEFIPTNFEILALEKDATPYPALIKDTAMSKLWFKQDDKFFLPKACLNFEFFSPFAYVDPLHCNMAYLYLELLKDSLNEYAYAAELAGLSYDLQNTIYGMYLSVKGYNDKQPILLKKITEKMATFEIDKKRFEIIKEAYMRSLNNFRAEQPHQHAMYYLRLLMTEVAWTKDELKEALDDVTLPRLKAFIPQLLSRLHIEALLHGNITKQAALGVMQMVEDTLIEHAHTKPLLPSQLVRYREVQLPDRGWFVYQRRNEVHNNCGIEIYYQTDMQSTSENMFLELFCQIISEPCFNTLRTKEQLGYIVFSGPRRANGIQGLRFIIQSEKPPHYLESRVEAFLITMEKAIEDMTEEAFQKHIQALAIRRLDKPKKLSAECAKYWGEIISQQYNYDRDNIEVAYLKTLSKDDIIKFYKEMLAVDAPRRHKVSVHVLAREMDSCPVVGEFPSQNDINLSEAPPLPQPEVIHNMTEFKRGLPLFPLVKPHINFMAAKL
notes: Insulin degrading enzyme, rat; EC 3.4.24.56; also called wild type IDE; native enzyme; source: Sf9 insect cells, purified (HIS-select Ni-NTA agarose)
B1 was tested, and the “stoichiometry N” value [3] was 2.
